According to the supplement of paper PMC9112550, “Optimization of the antimicrobial peptide Bac7 by deep mutational scanning” (BMC Biology, 2022):

Tested on: Escherichia coli TOP10
Test: shrunken log2 fold change of peptide-encoding DNA abundance (4.5 h post-induction vs induction); higher = less antimicrobial activity (less host growth inhibition)
Settings: time post-induction: 4.5 h; library: site-saturation at positions 5, 18, 19, 20
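Note: peptides expressed intracellularly from a pBAD plasmid library in pooled LB shake-flask culture, induced with 0.3% L-arabinose, DNA abundance read by NGS, three biological replicates, DESeq2 with apeglm shrinkage.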

## RRIRIRPPRLPRPRPRPEPHPRP
  shrunken log2 fold change: -0.0648

## RRIRMRPPRLPRPRPRPQYDPRP
  shrunken log2 fold change: -0.204

## RRIRDRPPRLPRPRPRPCIVPRP
  shrunken log2 fold change: -0.0549

## RRIRDRPPRLPRPRPRPITLPRP
  shrunken log2 fold change: -0.0934

## RRIRNRPPRLPRPRPRPLQHPRP
  shrunken log2 fold change: 0.198

## RRIRERPPRLPRPRPRPWEKPRP
  shrunken log2 fold change: -0.00277

## RRIRQRPPRLPRPRPRPAFNPRP
  shrunken log2 fold change: 0.18

## RRIRNRPPRLPRPRPRPISCPRP
  shrunken log2 fold change: -0.205

## RRIRSRPPRLPRPRPRPRHTPRP
  shrunken log2 fold change: 0.0335

## RRIRNRPPRLPRPRPRPTNSPRP
  shrunken log2 fold change: -0.279

## RRIRIRPPRLPRPRPRPSWLPRP
  shrunken log2 fold change: -0.373

## RRIRRRPPRLPRPRPRPHTIPRP
  shrunken log2 fold change: 0.141

## RRIRVRPPRLPRPRPRPHFVPRP
  shrunken log2 fold change: -0.0262

## RRIRIRPPRLPRPRPRPCPKPRP
  shrunken log2 fold change: -0.564

## RRIRARPPRLPRPRPRPGCTPRP
  shrunken log2 fold change: 0.552

## RRIRGRPPRLPRPRPRPNCLPRP
  shrunken log2 fold change: 0.191

## RRIRKRPPRLPRPRPRPTPYPRP
  shrunken log2 fold change: 0.235

## RRIRFRPPRLPRPRPRPWFSPRP
  shrunken log2 fold change: -0.0536

## RRIRDRPPRLPRPRPRPDADPRP
  shrunken log2 fold change: 0.0193

## RRIRMRPPRLPRPRPRPCTSPRP
  shrunken log2 fold change: 0.0228

## RRIRIRPPRLPRPRPRPEHFPRP
  shrunken log2 fold change: -0.0163

## RRIRPRPPRLPRPRPRPNHPPRP
  shrunken log2 fold change: -0.404

## RRIRYRPPRLPRPRPRPGNHPRP
  shrunken log2 fold change: -0.064

## RRIRVRPPRLPRPRPRPHRTPRP
  shrunken log2 fold change: -0.16

## RRIRPRPPRLPRPRPRPRAHPRP
  shrunken log2 fold change: 0.345

## RRIRKRPPRLPRPRPRPLQMPRP
  shrunken log2 fold change: -0.0261

## RRIRSRPPRLPRPRPRPPFGPRP
  shrunken log2 fold change: 0.398

## RRIRSRPPRLPRPRPRPFSRPRP
  shrunken log2 fold change: -0.347

## RRIRRRPPRLPRPRPRPFSYPRP
  shrunken log2 fold change: 0.016

## RRIRKRPPRLPRPRPRPPEAPRP
  shrunken log2 fold change: 0.948

## RRIRGRPPRLPRPRPRPWNEPRP
  shrunken log2 fold change: -0.14

## RRIRMRPPRLPRPRPRPTVYPRP
  shrunken log2 fold change: -0.0666

## RRIRDRPPRLPRPRPRPTCCPRP
  shrunken log2 fold change: 0.104

## RRIRCRPPRLPRPRPRPMPTPRP
  shrunken log2 fold change: 0.592

## RRIRARPPRLPRPRPRPQWEPRP
  shrunken log2 fold change: 0.196

## RRIRRRPPRLPRPRPRPGIPPRP
  shrunken log2 fold change: 0.322

## RRIRMRPPRLPRPRPRPGRLPRP
  shrunken log2 fold change: 0.411

## RRIRLRPPRLPRPRPRPPPPPRP
  shrunken log2 fold change: 1.55

## RRIRMRPPRLPRPRPRPCMCPRP
  shrunken log2 fold change: -0.317

## RRIRIRPPRLPRPRPRPGNEPRP
  shrunken log2 fold change: -0.0358

## RRIRNRPPRLPRPRPRPTSHPRP
  shrunken log2 fold change: -0.0916

## RRIRYRPPRLPRPRPRPQFFPRP
  shrunken log2 fold change: -0.0644

## RRIRGRPPRLPRPRPRPCFTPRP
  shrunken log2 fold change: 0.334

## RRIRQRPPRLPRPRPRPNRGPRP
  shrunken log2 fold change: -0.0689

## RRIRTRPPRLPRPRPRPIVNPRP
  shrunken log2 fold change: -0.655

## RRIRNRPPRLPRPRPRPVAFPRP
  shrunken log2 fold change: -0.119

## RRIRQRPPRLPRPRPRPRLSPRP
  shrunken log2 fold change: 0.0751

## RRIRYRPPRLPRPRPRPHLKPRP
  shrunken log2 fold change: -0.452

## RRIRNRPPRLPRPRPRPKYCPRP
  shrunken log2 fold change: -0.225

## RRIRDRPPRLPRPRPRPMIGPRP
  shrunken log2 fold change: 0.266

## RRIRIRPPRLPRPRPRPVKWPRP
  shrunken log2 fold change: -0.0064

## RRIRGRPPRLPRPRPRPLWEPRP
  shrunken log2 fold change: 1.51

## RRIRKRPPRLPRPRPRPVGFPRP
  shrunken log2 fold change: 0.485

## RRIRGRPPRLPRPRPRPLPKPRP
  shrunken log2 fold change: 0.943

## RRIRARPPRLPRPRPRPRMFPRP
  shrunken log2 fold change: 0.345

## RRIRLRPPRLPRPRPRPDFFPRP
  shrunken log2 fold change: 0.0131

## RRIRNRPPRLPRPRPRPFIAPRP
  shrunken log2 fold change: -0.32

## RRIRNRPPRLPRPRPRPFFGPRP
  shrunken log2 fold change: 0.239

## RRIRWRPPRLPRPRPRPTEEPRP
  shrunken log2 fold change: 0.12

## RRIRIRPPRLPRPRPRPFTIPRP
  shrunken log2 fold change: -0.246
